Entries after “also recorded” stand apart in the source; their conditions may differ.
Columns and labels:
[1] = test system: GFRα1-associated Src kinases; test: In vitro kinase assay on anti-GFRα1 immunoprecipitate from Ret^−/− DRG neurons; format: cell-based, mouse; conditions: GDNF 100 ng/ml, 5 min; Triton X-100 insoluble fraction
Protocol: (§1) DRG neurons (5×10^5), SHEP neuroblastoma cells (10^7), Neuro2A neuroblastoma cells stably transfected with GFRα1 (10^7) or NIH3T3 cells (NIH3T3/pBpGFRα1) stably transfected with GFRα1 (10^7) were incubated in serum-free culture medium without (control) or with GDNF (GDNF-treated) for 0.5-15 min at 37° C. The cells were washed twice with cold PBS/vanadate and lysed in TX-100 lysis buffer (50 mM Tris-HCl, pH 7.5, 150 mM NaCl, 5 mM EDTA, 1% Triton X-100, 1 mM sodium orthovanadate, 1 mM phenylmethylsulfonyl fluoride (PMSF) and protease inhibitors (Boehringer) on ice for 1 hour. The postnuclear lysates were pre-cleared by incubation with 50 μl of 50% Protein G-Sepharose for goat polyclonal antibodies or Protein A-Sepharose CL4B (Pharmacia) for rabbit polyclonal antibodies for 1 hour at +4° C. After removal of the beads, the supernatants were incubated with 0.4-0.5 μg of anti-GFRα1 or anti-Yes polyclonal antibodies (Santa Cruz Biotechnology) overnight at +4° C. followed by incubation with Protein G or A-Sepharose for 2 hours. The immunocomplexes were washed twice in TX-100 lysis buffer without EDTA and twice in kinase buffer (25 mM Hepes, pH 7.4, 5 mM MgCl2, 5 mM MnCl2, 1 mM sodium orthovanadate). […] Quantification of the optical density of the blots was performed using the TINA program.

GFRα2^−/− DRG neurons = test: GDNF-evoked [Ca^2+]i changes, confocal microscopy, GFRα2^−/− DRG neurons; format: cell-based, mouse
Protocol: DRG from embryonic day 18 (E18) mice were treated with trypsin (Worthington), non-neuronal cells removed by preplating, and about 95% pure neurons cultured on poly-ornithine-laminin-coated glass coverslips in Ham's F14 medium (Imperial Laboratories) with serum substitute containing NGF, BDNF and NT-3 (all from PeproTech, 2 ng/ml if each) for at least 1 day before measurement. Neurotrophins were extensively washed out before GDNF application. GDNF was from PeproTech and donated by Cephalon, Inc. Ret-deficient mice (Schuchardt et al., 1994) were identified from heterozygote matings by the absence of kidneys and PCR-based genotyping. GFRα2-deficient mice were obtained from homozygote matings (Rossi et al., 1999).
[Ca^2+]i was measured using a Bio-Rad MRC-1024 confocal microscope equipped with an argon-krypton laser. The cells were loaded with 10 μM Calcium Green-1AM (Molecular Probes), a membrane permeable Ca^2+ dye, by 30 min incubation in serum free cell-culture media at 37 ° C. and 5 % CO2. After loading, the neurons were kept at room temperature in Dulbecco's PBS solution contained 20 mM HEPES (pH=7.4) for at least 20 min prior to the experiments. All compounds were applied to the bath by a peristaltic pump. 6 kD Heparin (Sigma) and Alexa 568 nm fluorescent dye (Molecular Probes) were loaded into the cells using Molecular Probes' pinocytotic influx loading reagent basically according to the manufacturer instructions. […] Cell injection was performed using Eppendorf microinjection system. The average intensity of fluorescence in the predefined ROI (Region Of Interest) was measured on-line using TimeCourse software from BioRad. The calibration of fluorescence traces was performed in vitro using Fmax and Fmin values obtained with the calcium calibration buffer kit (Molecular Probes). Because the calibration solutions may not reflect the intracellular environment, the experimental data are presented as delta [Ca^2+]i calculated using Kd=190 nM for Calcium Green-1.
Transgenic GFRα2 knock-out mice were produced in our laboratory. […]

Src-type kinase = test: Immuno-complex kinase assay on anti-GFRα1 co-precipitates from SHEP neuroblastoma cells; format: cell-based, human; conditions: GDNF 100 ng/ml
Protocol: as §1, with “program. […]” for “program.”

PLCγ = PLCγ tyrosine phosphorylation (immunoprecipitation and Western blotting) in SHEP cells; format: cell-based, human
Protocol: To determine changes in GDNF-evoked PLCγ tyrosine phosphorylation the Western blotting assays were performed as described in Khare et al. (1997). Briefly, SHEP neuroblastoma cells were pre-incubated with 1 mM sodium vanadate in serum-free medium for 30 min. at 37 ° C. and then were treated at 37 ° C. with 1-100 ng/ml GDNF for 1 min. unless otherwise indicated. Incubation was stopped by the addition of ice-cold PBS buffer containing 1 mM sodium vanadate. Whole cell lysates (final protein concentration 0.1-0.3 mg/ml) were prepared at 4° C. in an extraction buffer (pH 7.5) containing 50 mM Tris-HCl, 137 mM NaCl, 1 mM sodium vanadate, 1 mM PMSF, 10% glycerol, 1% NP-40 and protease inhibitors cocktail (Boehringer). Phosphotyrosine-containing proteins were immunoprecipitated with 4G-10 antibodies (Upstate Biotechnology), collected with Protein A Sepharose beads and separated on the 7.5% SDS-PAGE. The proteins were transferred to Hybond-ECL nitrocellulose membrane, and PLCγ was assessed by Western blotting using anti-PLCγ antibodies (Upstate Biotechnology). In some experiments we first immunoprecipitated PLCγ from the cell lysate using anti-PLCγ antibodies and probed the filter with anti-phosphotyrosine 4G-10 antibodies as described above. […]

B1: Glial cell line—derived neurotrophic factor (protein, UniProt P39905 78-211, looked up)
Glial cell line-derived …: SPDKQMAVLPRRERNRQAAAANPENSRGKGRRGQRGKNRGCVLTAIHLNVTDLGLGYETKEELIFRYCSGSCDAAETTYDKILKNLSRNRRLVSDKVGQACCRPIAFDDDLSFLDDNLVYHILRKHSAKRCGCI
notes: TGF-β family-related neurotrophic protein; from PeproTech and donated by Cephalon, Inc
- phosphoprotein in in vitro kinase assay of anti-GFRα1 precipitate [1]: revealed a major phosphoprotein of approximately 60 kD
- change in [Ca^2+]i (GFRα2^−/− DRG neurons; GDNF 100 ng/ml, normal external Ca^2+): evoked both transient and sustained [Ca^2+]i elevation; also recorded: same pattern of fast and slow kinetics of Ca^2+ elevation as the wild type neurons
- change in [Ca^2+]i (GFRα2^−/− DRG neurons; GDNF after nominal removal of extracellular calcium (about 20 μM)): profound rapid and oscillatory (5 out of 9 cells) [Ca^2+]i increase
- Src type kinase activity associated with GFRα1 (Src-type kinase; 1 min, postnuclear lysate): significantly increased Src type kinase activity
- increase of Src-type kinase activity (Src-type kinase; Triton X-100 insoluble fractions, relative to non-treated cells): twelve-fold
- time to return to basal tyrosine phosphorylation levels of PLCγ (PLCγ; GDNF): ≤ 5 min
- PLCγ tyrosine phosphorylation (PLCγ; GDNF 1-100 ng/ml, 1 min): significantly increased PLCγ tyrosine phosphorylation; also recorded: dose-dependent increase in PLCγ tyrosine phosphorylation

— patent US6905817B1, “Ret-independent signaling pathway for GDNF” (Licestia Ltd., priority 1998, dated 2005)
